The values below come from patent US20200239543A1 (ALX ONCOLOGY, published 2020).

What is called Kd is the constant that tells how readily two partners part at equilibrium.

First the molecules themselves.
T1: mouse CD47 (mouse, UniProt Q61735 19-140, limits assumed)
T1 construct: also called mouse CD47 protein
T1 sequence (looked up): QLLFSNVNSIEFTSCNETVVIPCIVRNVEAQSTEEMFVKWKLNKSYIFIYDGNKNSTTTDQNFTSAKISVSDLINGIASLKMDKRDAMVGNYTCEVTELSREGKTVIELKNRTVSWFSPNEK

T2: rat CD47 (rat, UniProt P97829 19-140, limits assumed)
T2 sequence (looked up): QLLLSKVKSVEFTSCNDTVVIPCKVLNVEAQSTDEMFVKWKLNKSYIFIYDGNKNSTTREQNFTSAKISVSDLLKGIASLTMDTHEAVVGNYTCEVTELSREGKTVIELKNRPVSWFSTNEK

B1: SIRP-α D1 variant polypeptide of SEQ ID NO: 64 (receptor)
chain: EEELQVIQPDKSVSVAAGESAILHCTVTSLIPVGPIQWFRGAGPARELIYNQREGPFPRVTTVSESTKRENMDFSISISNITPADAGTYYCVKFRKGSPDTEFKSGAGTELSVRAKPS
notes: engineered SIRP-α D1 domain
B2: SIRP-α D1 variant polypeptide of SEQ ID NO: 69 (receptor)
chain: B1 chain with V27I
notes: engineered SIRP-α D1 domain
B3: SIRP-α D1 variant polypeptide of SEQ ID NO: 68 (receptor)
chain: B1 chain with V6I, V27I, I31F
notes: engineered SIRP-α D1 domain
B4: SIRP-α D1 variant polypeptide of SEQ ID NO: 65 (receptor)
chain: B1 chain with I31F
notes: engineered SIRP-α D1 domain
B5: SIRP-α D1 variant polypeptide of SEQ ID NO: 67 (receptor)
chain: B1 chain with V27I, I31F, S66T
notes: engineered SIRP-α D1 domain
B6: SIRP-α D1 variant polypeptide of SEQ ID NO: 66 (receptor)
chain: B1 chain with V27I, I31F
notes: engineered SIRP-α D1 domain
B7: SIRP-α D1 variant polypeptide of SEQ ID NO: 78 (receptor)
chain: EEELQIIQPDKSVLVAAGETATLRCTITSLFPVGPIQWFRGAGPGRVLIYNQRQGPFPRVTTVSDTTKRNNMDFSIRIGAITPADAGTYYCIKFRKGSPDDVEFKSGAGTELSVRAKPS
notes: engineered SIRP-α D1 domain
B8: SIRP-α D1 variant polypeptide of SEQ ID NO: 80 (receptor)
chain: B7 chain with Q54E
notes: engineered SIRP-α D1 domain
B9: SIRP-α D1 variant polypeptide of SEQ ID NO: 79 (receptor)
chain: B7 chain with I6V, I27A, V47E, T66L, I92V
notes: engineered SIRP-α D1 domain
B10: engineered SIRP-α D1 variant construct that does not bind CD47, SEQ ID NO: 215 (Fc fusion)
chain: EEELQVIQPDKSVLVAAGETATLRCTATSLIPRGPIQWFRGAGPGRELIYNRKEGHFPRVTTVSDLTKRNNMDFSIRIGNITPADAGTYYCVKFRKGSPDDVEFKSGAGTELSVRAKPSDKTHTCPPCPAPEAAGAPSVFLFPPKPKDTLMISRTPEVTCVVVDVSHEDPEVKFNWYVDGVEVHNAKTKPREEQYASTYRVVSVLTVLHQDWLNGKEYKCKVSNKALPAPIEKTISKAKGQPREPQVYTLPPSREEMTKNQVSLTCLVKGFYPSDIAVEWESNGQPENNYKTTPPVLDSDGSFFLYSKLTVDKSRWQQGNVFSCSVMHEALHNHYTQKSLSLSPGK
notes: negative control; also called negative control
B11: SIRP-α D1 variant fused to Fc variant, SEQ ID NO: 214 (Fc fusion)
chain: EEELQVIQPDKSVLVAAGETATLRCTATSLFPVGPIQWFRGAGPGRELIYNQREGPFPRVTTVSDLTKRNNMDFSIRIGAITPADAGTYYCVKFRKGSPDDVEFKSGAGTELSVRAKPSERKSSVECPPCPAPPVAGPSVFLFPPKPKDTLMISRTPEVTCVVVDVSHEDPEVQFNWYVDGVEVHNAKTKPREEQFASTFRVVSVLTVVHQDWLNGKEYKCKVSNKGLPSSIEKTISKTKGQPREPQVYTLPPSREEMTKNQVSLTCLVKGFYPSDIAVEWESNGQPENNYKTTPPMLDSDGSFFLYSKLTVDKSRWQQGNVFSCSVMHEALHNHYTQKSLSLSPG
B12: SIRP-α D1 variant polypeptide of SEQ ID NO: 200 (receptor)
chain: B7 chain with V47E, Q54E, I92V, S98I
B13: SIRP-α D1 variant polypeptide of SEQ ID NO: 207 (receptor)
chain: B7 chain with F31Y, V47E, Q54D, I92V
B14: SIRP-α D1 variant polypeptide of SEQ ID NO: 205 (receptor)
chain: B7 chain with F31R, V47E, Q54E, I92V, S98I
B15: SIRP-α D1 variant polypeptide of SEQ ID NO: 208 (receptor)
chain: B7 chain with F31Y, V47E, Q54E, I92V, S98I
B16: SIRP-α D1 variant polypeptide of SEQ ID NO: 198 (receptor)
chain: B7 chain with F31Y, V47E, Q54E, I92V
B17: SIRP-α D1 variant polypeptide of SEQ ID NO: 199 (receptor)
chain: B7 chain with V47E, Q54D, I92V
B18: SIRP-α D1 variant fused to Fc variant, SEQ ID NO: 135 (Fc fusion)
chain: EEELQVIQPDKSVLVAAGETATLRCTATSLFPVGPIQWFRGAGPGRELIYNQREGPFPRVTTVSDLTKRNNMDFSIRIGAITPADAGTYYCVKFRKGSPDDVEFKSGAGTELSVRAKPSDKTHTCPPCPAPEAAGAPSVFLFPPKPKDTLMISRTPEVTCVVVDVSHEDPEVKFNWYVDGVEVHNAKTKPREEQYASTYRVVSVLTVLHQDWLNGKEYKCKVSNKALPAPIEKTISKAKGQPREPQVYTLPPSREEMTKNQVSLTCLVKGFYPSDIAVEWESNGQPENNYKTTPPVLDSDGSFFLYSKLTVDKSRWQQGNVFSCSVMHEALHNHYTQKSLSLSPG
B19: SIRP-α D1 variant fused to Fc variant, SEQ ID NO: 101 (Fc fusion)
chain: B10 chain with A27I, I31F, R33V, R52Q, K53R, H56P, N80A
B20: SIRP-α D1 variant fused to Fc variant, SEQ ID NO: 102 (Fc fusion)
chain: B10 chain with V6I, A27I, I31F, R33V, R52Q, K53R, H56P, N80A
B21: SIRP-α D1 variant fused to Fc variant, SEQ ID NO: 99 (Fc fusion)
chain: B10 chain with I31F, R33V, R52Q, K53R, E54Q, H56P, N80A
B22: SIRP-α D1 variant fused to Fc variant, SEQ ID NO: 110 (Fc fusion)
chain: EEELQVIQPDKSVLVAAGETATLRCTITSLFPVGPIQWFRGAGPGRELIYNQREGPFPRVTTVSDLTKRNNMDFSIRIGAITPADAGTYYCVKFRKGSPDDVEFKSGAGTELSVRAKPSVECPPCPAPPVAGPSVFLFPPKPKDTLMISRTPEVTCVVVDVSHEDPEVQFNWYVDGVEVHNAKTKPREEQFASTFRVVSVLTVVHQDWLNGKEYKCKVSNKGLPSSIEKTISKTKGQPREPQVYTLPPSREEMTKNQVSLTCLVKGFYPSDIAVEWESNGQPENNYKTTPPMLDSDGSFFLYSKLTVDKSRWQQGNVFSCSVMHEALHNHYTQKSLSLSPGK
B23: SIRP-α D1 variant fused to Fc variant, SEQ ID NO: 106 (Fc fusion)
chain: B22 chain with I27A, E54Q, A80N
B24: SIRP-α D1 variant fused to Fc variant, SEQ ID NO: 111 (Fc fusion)
chain: B22 chain with V6I
B25: SIRP-α D1 variant fused to Fc variant, SEQ ID NO: 108 (Fc fusion)
chain: B22 chain with I27A, E54Q
B26: SIRP-α D1 variant fused to Fc variant, SEQ ID NO: 109 (Fc fusion)
chain: B22 chain with I27A
B27: SIRP-α D1 variant fused to Fc variant, SEQ ID NO: 114 (Fc fusion)
chain: EEELQIIQPDKSVLVAAGETATLRCTITSLFPVGPIQWFRGAGPGRVLIYNQRQGPFPRVTTVSDTTKRNNMDFSIRIGNITPADAGTYYCIKFRKGSPDDVEFKSGAGTELSVRAKPSERKSSVECPPCPAPPVAGPSVFLFPPKPKDTLMISRTPEVTCVVVDVSHEDPEVQFNWYVDGVEVHNAKTKPREEQFASTFRVVSVLTVVHQDWLNGKEYKCKVSNKGLPSSIEKTISKTKGQPREPQVYTLPPSREEMTKNQVSLTCLVKGFYPSDIAVEWESNGQPENNYKTTPPMLDSDGSFFLYSKLTVDKSRWQQGNVFSCSVMHEALHNHYTQKSLSLSPGK
B28: SIRP-α D1 variant fused to Fc variant, SEQ ID NO: 115 (Fc fusion)
chain: B27 chain with I6V, I27A, V47E, T66L, I92V

Substitutions are numbered along the chain they refer to.

T3 sequence (Q08722 19-139 limits assumed): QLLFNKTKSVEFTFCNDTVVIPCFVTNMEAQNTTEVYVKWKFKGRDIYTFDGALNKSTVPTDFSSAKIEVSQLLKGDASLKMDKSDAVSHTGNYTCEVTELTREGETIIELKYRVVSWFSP

One assay has as its target T3, human CD47 (human, UniProt Q08722 19-139).
T3 construct: extracellular domain; also called CD47 ECD
Description: SPR, 25 C, 1:1 Langmuir fit. (In general: Surface plasmon resonance follows binding to a sensor surface in real time, without labels.)
The molecule B1 yielded a Kd of 5.45 nM. On the same count and under the same terms, then B2, with 2.4 nM; and B3, with 0.251 nM; and B4, with 0.8 nM.

In turn, B5 yielded a Kd of 0.206 nM. On the same count and under the same terms, the figure for B6 is 0.47 nM; for B7 it is 0.0144 nM; for B8 it is 0.0472 nM. Molecule B9 gave a Kd of 0.217 nM.

The next assay concerns the target T1, mouse CD47. Description: SPR (Biacore T100 and ProteOn XPR36).
As for B10, the binding result is on record as “no binding”. For the molecule B11, the affinity, expressed as Kd, was 63 nM.

Regarding B12, the Kd is 1.17 nM. Same read-out and setting: the figure for B13 is 0.88 nM. In turn, B14 returned a Kd of 0.569 nM. Same read-out and setting: then B15, with 0.832 nM; and B16, with 1.41 nM; and B17, with 1.25 nM.

The next assay concerns the target T3, human CD47. Description: SPR (Biacore T100 and ProteOn XPR36).
For the molecule B10, the binding result is listed as “no binding”. In turn, B11 showed a Kd of 2 nM. The molecule B12 displayed a Kd of 0.304 nM. On the same count and under the same terms, then B13, with 1.04 nM.

With B14, the dissociation constant (Kd) was 0.248 nM.

Molecule B15 came in with a Kd of 0.219 nM. On the same count and under the same terms, then B16, with 0.155 nM. Still for that read-out and setting: the figure for B17 is 1.26 nM.

In the next assay the target is T2, rat CD47. Description: SPR (Biacore T100 and ProteOn XPR36).
As for B10, the binding result was “no binding”. For B11, the Kd came out at 80 nM.

Molecule B12 returned a Kd of 14.2 nM. Same read-out and setting: then B13, with 5.9 nM; and B14, with 4.28 nM; and B15, with 5.17 nM. The same measure, in the same setting: then B16, with 9.88 nM. Still for that read-out and setting: then B17, with 10.7 nM.

The next assay addresses T3, human CD47. In words: SPR as in Example 1.
Consider B18, for which the Kd stood at 3.46 nM. Same read-out and setting: the figure for B19 is 0.89 nM; for B20 it is 0.379 nM; for B21 it is 0.895 nM. The same measure, in the same setting: the figure for B22 is 0.653 nM. B23 gave a Kd of 0.811 nM. The same measure, in the same setting: then B24, with 0.315 nM; and B25, with 0.478 nM; and B26, with 2.15 nM.

B27 returned a Kd of 0.0343 nM. B28 showed a dissociation constant (Kd) of 0.498 nM.
